Data from patent US20240325557A1, “TREATMENT OF CANCER” (INNATE PHARMA, priority 2020, published 2024).

Key:
[1] = biological target: HER2 on SUM185 and SUM190 human breast cancer tumor cells (human) (UniProt P04626); experiment: flow cytometry on SUM185 cells, antibody at 10 µg/ml
[2] = biological target: HER2 on SUM185 and SUM190 human breast cancer tumor cells (human) (UniProt P04626); experiment: flow cytometry on SUM190 cells, antibody at 10 µg/ml

MFI (median fluorescence units) [1]: 2880
MFI (median fluorescence units) [2]: 1780
Substance: Anti-Her2 antibody trastuzumab modified as human IgG1 isotype containing a N297Q mutation
